B1: Guanyl-specific ribonuclease Sa, P05798 (parent)
chain: DVSGTVCLSALPPEATDTLNLIASDGPFPYSQDGVVFQNRESVLPTQSYGYYHEYTVITPGARTRGTRRIITGEATQEDYYTGDHYATFSLIDQTC

The variants in the data set derive from B1. Conditions: Kitasatospora aureofaciens, 25 °C, Urea, CD, structure 1RGG, whole UniProt chain shown.

In the case of R40E R63E R65A R68A R69A, for the setting “pH 3, Glycine 30 mM”, the “ddG of mutation (higher = less stable)” value was -2.7 kcal/mol, the denaturant m value worked out at 1.17 kcal/mol/M, the “denaturant midpoint (higher = more stable)” value (from here on “denaturant midpoint”) turned out to be 4.5 M and the unfolding free energy was 5.3 kcal/mol. Further, for the setting “pH 7, MOPS 30 mM”, the “ddG of mutation (higher = less stable)” value amounted to 2.5 kcal/mol, the denaturant m value worked out at 0.85 kcal/mol/M, the “denaturant midpoint” value turned out to be 4.6 M and the unfolding free energy is 3.9 kcal/mol.

For R40E R63E, for the setting “pH 3, Glycine 30 mM”, the “ddG of mutation (higher = less stable)” value was -1.1 kcal/mol, the denaturant m value was 1.66 kcal/mol/M, the “denaturant midpoint” value is 2.2 M and the unfolding free energy worked out at 3.7 kcal/mol.

D1K D17K E41K D25K E74K: under “pH 3, Glycine 30 mM”, the “ddG of mutation (higher = less stable)” value is -0.9 kcal/mol, the denaturant m value was found to be 1.92 kcal/mol/M, the “denaturant midpoint” value is 1.8 M and the unfolding free energy came to 3.5 kcal/mol. In addition, where the note is “pH 7, MOPS 30 mM”, the “ddG of mutation (higher = less stable)” value came to 0.7 kcal/mol, the denaturant m value amounted to 1.07 kcal/mol/M, the “denaturant midpoint” value came to 5.3 M and the unfolding free energy came to 5.7 kcal/mol.

Take D1K D17K E41K: where the note is “pH 3, Glycine 30 mM”, the “ddG of mutation (higher = less stable)” value was -0.7 kcal/mol, the denaturant m value was determined as 1.95 kcal/mol/M, the “denaturant midpoint” value was 1.7 M and the unfolding free energy was 3.3 kcal/mol. Besides, under “pH 7, MOPS 30 mM”, the “ddG of mutation (higher = less stable)” value came to 2.7 kcal/mol, the denaturant m value was 0.93 kcal/mol/M, the “denaturant midpoint” value turned out to be 4 M and the unfolding free energy came out at 3.7 kcal/mol.

Regarding R40E, for the setting “pH 3, Glycine 30 mM”, the “ddG of mutation (higher = less stable)” value is -0.3 kcal/mol, the denaturant m value was determined as 1.52 kcal/mol/M, the “denaturant midpoint” value worked out at 1.9 M and the unfolding free energy was 2.9 kcal/mol.

Regarding D1K D17K E41K D25K E74K D79K S31K, for the setting “pH 3, Glycine 30 mM”, the “ddG of mutation (higher = less stable)” value worked out at 0 kcal/mol, the denaturant m value came out at 2.37 kcal/mol/M, the “denaturant midpoint” value was determined as 1.1 M and the unfolding free energy was 2.6 kcal/mol. Also, for the setting “pH 7, MOPS 30 mM”, the “ddG of mutation (higher = less stable)” value is -0.2 kcal/mol, the denaturant m value came out at 1.15 kcal/mol/M, the “denaturant midpoint” value came out at 5.7 M and the unfolding free energy came out at 6.6 kcal/mol.

As to D1K D17K E41K D25K E74K D79K, under “pH 3, Glycine 30 mM”, the “ddG of mutation (higher = less stable)” value was -0.2 kcal/mol, the denaturant m value turned out to be 2.25 kcal/mol/M, the “denaturant midpoint” value was determined as 1.2 M and the unfolding free energy stood at 2.7 kcal/mol. In addition, where the note is “pH 7, MOPS 30 mM”, the “ddG of mutation (higher = less stable)” value was -0.7 kcal/mol, the denaturant m value was found to be 1.03 kcal/mol/M, the “denaturant midpoint” value worked out at 6.9 M and the unfolding free energy is 7.1 kcal/mol.

Values taken from FireProtDB (doi:10.1002/pro.370).
